# From the Human Domainome abundance scans (Beltran et al. 2025)
# ± gives the uncertainty stated by the source.
# B1: Pyruvate dehydrogenase protein X component, mitochondrial, residues 181 to 227; numbered along this chain, O00330 (parent)
# chain: RFRLSPAARNILEKHSLDASQGTATGPRGIFTKEDALKLVQLKQTGK
# Variants of: B1
# Assay: abundance fitness (aPCA) (normalised: wild type 0, dead -1); higher = more abundant; growth selection in yeast, the domain comes from the species named
# Conditions: Homo sapiens
row,Variant,abundance fitness
1,RFRLSPAARNILEKHSLDASQGTATGERGIFTKEDALKLVQLKQTGK,-0.131 ± 0.059
2,RFRLSPAARNILEKHSLDASQGTATGFRGIFTKEDALKLVQLKQTGK,-0.655 ± 0.14
3,RFRLSPAARNILEKHSLDASQGTATGGRGIFTKEDALKLVQLKQTGK,-0.491 ± 0.057
4,RFRLSPAARNILEKHSLDASQGTATGHRGIFTKEDALKLVQLKQTGK,-0.309 ± 0.058
5,RFRLSPAARNILEKHSLDASQGTATGIRGIFTKEDALKLVQLKQTGK,-0.547 ± 0.11
6,RFRLSPAARNILEKHSLDASQGTATGKRGIFTKEDALKLVQLKQTGK,-0.146 ± 0.063
7,RFRLSPAARNILEKHSLDASQGTATGLRGIFTKEDALKLVQLKQTGK,-0.599 ± 0.069
8,RFRLSPAARNILEKHSLDASQGTATGNRGIFTKEDALKLVQLKQTGK,-0.426 ± 0.059
9,RFRLSPAARNILEKHSLDASQGTATGQRGIFTKEDALKLVQLKQTGK,-0.221 ± 0.056
10,RFRLSPAARNILEKHSLDASQGTATGRRGIFTKEDALKLVQLKQTGK,-0.363 ± 0.046
11,RFRLSPAARNILEKHSLDASQGTATGSRGIFTKEDALKLVQLKQTGK,-0.213 ± 0.043
12,RFRLSPAARNILEKHSLDASQGTATGTRGIFTKEDALKLVQLKQTGK,-0.167 ± 0.069
13,RFRLSPAARNILEKHSLDASQGTATGVRGIFTKEDALKLVQLKQTGK,-0.515 ± 0.058
14,RFRLSPAARNILEKHSLDASQGTATGWRGIFTKEDALKLVQLKQTGK,-0.682 ± 0.079
15,RFRLSPAARNILEKHSLDASQGTATGYRGIFTKEDALKLVQLKQTGK,-0.689 ± 0.13
16,RFRLSPAARNILEKHSLDASQGTATGPAGIFTKEDALKLVQLKQTGK,-0.119 ± 0.06
17,RFRLSPAARNILEKHSLDASQGTATGPCGIFTKEDALKLVQLKQTGK,-0.072 ± 0.051
18,RFRLSPAARNILEKHSLDASQGTATGPDGIFTKEDALKLVQLKQTGK,0.259 ± 0.1
19,RFRLSPAARNILEKHSLDASQGTATGPEGIFTKEDALKLVQLKQTGK,0.06 ± 0.09
20,RFRLSPAARNILEKHSLDASQGTATGPFGIFTKEDALKLVQLKQTGK,-0.085 ± 0.073
21,RFRLSPAARNILEKHSLDASQGTATGPHGIFTKEDALKLVQLKQTGK,-0.202 ± 0.11
22,RFRLSPAARNILEKHSLDASQGTATGPIGIFTKEDALKLVQLKQTGK,-0.936 ± 0.15

row,Variant,abundance fitness
1,RFRLSPAARNILEKHSLDASQGTATGPKGIFTKEDALKLVQLKQTGK,0.033 ± 0.071
2,RFRLSPAARNILEKHSLDASQGTATGPLGIFTKEDALKLVQLKQTGK,-0.161 ± 0.045
3,RFRLSPAARNILEKHSLDASQGTATGPMGIFTKEDALKLVQLKQTGK,-0.071 ± 0.072
4,RFRLSPAARNILEKHSLDASQGTATGPNGIFTKEDALKLVQLKQTGK,0.285 ± 0.088
5,RFRLSPAARNILEKHSLDASQGTATGPPGIFTKEDALKLVQLKQTGK,-0.408 ± 0.096
6,RFRLSPAARNILEKHSLDASQGTATGPQGIFTKEDALKLVQLKQTGK,-0.314 ± 0.11
7,RFRLSPAARNILEKHSLDASQGTATGPSGIFTKEDALKLVQLKQTGK,-0.146 ± 0.072
8,RFRLSPAARNILEKHSLDASQGTATGPTGIFTKEDALKLVQLKQTGK,-0.281 ± 0.063
9,RFRLSPAARNILEKHSLDASQGTATGPVGIFTKEDALKLVQLKQTGK,-0.456 ± 0.068
10,RFRLSPAARNILEKHSLDASQGTATGPWGIFTKEDALKLVQLKQTGK,-0.255 ± 0.057
11,RFRLSPAARNILEKHSLDASQGTATGPYGIFTKEDALKLVQLKQTGK,-0.03 ± 0.064
12,RFRLSPAARNILEKHSLDASQGTATGPRCIFTKEDALKLVQLKQTGK,-0.706 ± 0.12
13,RFRLSPAARNILEKHSLDASQGTATGPRDIFTKEDALKLVQLKQTGK,-0.101 ± 0.11
14,RFRLSPAARNILEKHSLDASQGTATGPREIFTKEDALKLVQLKQTGK,-0.226 ± 0.063
15,RFRLSPAARNILEKHSLDASQGTATGPRFIFTKEDALKLVQLKQTGK,-1.05 ± 0.28
16,RFRLSPAARNILEKHSLDASQGTATGPRHIFTKEDALKLVQLKQTGK,-0.773 ± 0.15
17,RFRLSPAARNILEKHSLDASQGTATGPRIIFTKEDALKLVQLKQTGK,-0.349 ± 0.11
18,RFRLSPAARNILEKHSLDASQGTATGPRLIFTKEDALKLVQLKQTGK,-0.609 ± 0.049
19,RFRLSPAARNILEKHSLDASQGTATGPRMIFTKEDALKLVQLKQTGK,-0.447 ± 0.1
20,RFRLSPAARNILEKHSLDASQGTATGPRNIFTKEDALKLVQLKQTGK,-0.395 ± 0.11
21,RFRLSPAARNILEKHSLDASQGTATGPRPIFTKEDALKLVQLKQTGK,-0.569 ± 0.071
22,RFRLSPAARNILEKHSLDASQGTATGPRQIFTKEDALKLVQLKQTGK,-0.418 ± 0.051

row,Variant,abundance fitness
1,RFRLSPAARNILEKHSLDASQGTATGPRRIFTKEDALKLVQLKQTGK,-0.526 ± 0.052
2,RFRLSPAARNILEKHSLDASQGTATGPRSIFTKEDALKLVQLKQTGK,-0.435 ± 0.069
3,RFRLSPAARNILEKHSLDASQGTATGPRTIFTKEDALKLVQLKQTGK,-0.788 ± 0.082
4,RFRLSPAARNILEKHSLDASQGTATGPRVIFTKEDALKLVQLKQTGK,-0.807 ± 0.067
5,RFRLSPAARNILEKHSLDASQGTATGPRWIFTKEDALKLVQLKQTGK,-0.892 ± 0.057
6,RFRLSPAARNILEKHSLDASQGTATGPRYIFTKEDALKLVQLKQTGK,-1.01 ± 0.18
7,RFRLSPAARNILEKHSLDASQGTATGPRGAFTKEDALKLVQLKQTGK,-0.105 ± 0.054
8,RFRLSPAARNILEKHSLDASQGTATGPRGCFTKEDALKLVQLKQTGK,-0.234 ± 0.075
9,RFRLSPAARNILEKHSLDASQGTATGPRGDFTKEDALKLVQLKQTGK,-0.087 ± 0.066
10,RFRLSPAARNILEKHSLDASQGTATGPRGEFTKEDALKLVQLKQTGK,0.092 ± 0.083
11,RFRLSPAARNILEKHSLDASQGTATGPRGFFTKEDALKLVQLKQTGK,-0.152 ± 0.05
12,RFRLSPAARNILEKHSLDASQGTATGPRGGFTKEDALKLVQLKQTGK,-0.271 ± 0.047
13,RFRLSPAARNILEKHSLDASQGTATGPRGHFTKEDALKLVQLKQTGK,-0.359 ± 0.15
14,RFRLSPAARNILEKHSLDASQGTATGPRGLFTKEDALKLVQLKQTGK,0.116 ± 0.04
15,RFRLSPAARNILEKHSLDASQGTATGPRGMFTKEDALKLVQLKQTGK,0.137 ± 0.099
16,RFRLSPAARNILEKHSLDASQGTATGPRGNFTKEDALKLVQLKQTGK,-0.268 ± 0.061
17,RFRLSPAARNILEKHSLDASQGTATGPRGPFTKEDALKLVQLKQTGK,-0.363 ± 0.08
18,RFRLSPAARNILEKHSLDASQGTATGPRGQFTKEDALKLVQLKQTGK,-0.178 ± 0.072
19,RFRLSPAARNILEKHSLDASQGTATGPRGRFTKEDALKLVQLKQTGK,-0.413 ± 0.067
20,RFRLSPAARNILEKHSLDASQGTATGPRGSFTKEDALKLVQLKQTGK,-0.145 ± 0.065
21,RFRLSPAARNILEKHSLDASQGTATGPRGTFTKEDALKLVQLKQTGK,0.068 ± 0.083
22,RFRLSPAARNILEKHSLDASQGTATGPRGVFTKEDALKLVQLKQTGK,-0.263 ± 0.078

row,Variant,abundance fitness
1,RFRLSPAARNILEKHSLDASQGTATGPRGWFTKEDALKLVQLKQTGK,-0.229 ± 0.1
2,RFRLSPAARNILEKHSLDASQGTATGPRGYFTKEDALKLVQLKQTGK,-0.292 ± 0.12
3,RFRLSPAARNILEKHSLDASQGTATGPRGIATKEDALKLVQLKQTGK,-0.451 ± 0.087
4,RFRLSPAARNILEKHSLDASQGTATGPRGICTKEDALKLVQLKQTGK,-0.236 ± 0.067
5,RFRLSPAARNILEKHSLDASQGTATGPRGIETKEDALKLVQLKQTGK,-0.087 ± 0.071
6,RFRLSPAARNILEKHSLDASQGTATGPRGIGTKEDALKLVQLKQTGK,-0.195 ± 0.072
7,RFRLSPAARNILEKHSLDASQGTATGPRGIHTKEDALKLVQLKQTGK,-0.222 ± 0.11
8,RFRLSPAARNILEKHSLDASQGTATGPRGIKTKEDALKLVQLKQTGK,-0.423 ± 0.12
9,RFRLSPAARNILEKHSLDASQGTATGPRGILTKEDALKLVQLKQTGK,-0.412 ± 0.046
10,RFRLSPAARNILEKHSLDASQGTATGPRGIMTKEDALKLVQLKQTGK,-0.38 ± 0.082
11,RFRLSPAARNILEKHSLDASQGTATGPRGINTKEDALKLVQLKQTGK,-0.084 ± 0.11
12,RFRLSPAARNILEKHSLDASQGTATGPRGIPTKEDALKLVQLKQTGK,-0.206 ± 0.076
13,RFRLSPAARNILEKHSLDASQGTATGPRGIQTKEDALKLVQLKQTGK,-0.424 ± 0.12
14,RFRLSPAARNILEKHSLDASQGTATGPRGIRTKEDALKLVQLKQTGK,-0.455 ± 0.063
15,RFRLSPAARNILEKHSLDASQGTATGPRGISTKEDALKLVQLKQTGK,-0.306 ± 0.068
16,RFRLSPAARNILEKHSLDASQGTATGPRGITTKEDALKLVQLKQTGK,-0.171 ± 0.093
17,RFRLSPAARNILEKHSLDASQGTATGPRGIVTKEDALKLVQLKQTGK,-0.349 ± 0.065
18,RFRLSPAARNILEKHSLDASQGTATGPRGIWTKEDALKLVQLKQTGK,-0.675 ± 0.14
19,RFRLSPAARNILEKHSLDASQGTATGPRGIYTKEDALKLVQLKQTGK,-0.335 ± 0.071
20,RFRLSPAARNILEKHSLDASQGTATGPRGIFAKEDALKLVQLKQTGK,-0.462 ± 0.087
21,RFRLSPAARNILEKHSLDASQGTATGPRGIFCKEDALKLVQLKQTGK,-0.519 ± 0.12
22,RFRLSPAARNILEKHSLDASQGTATGPRGIFDKEDALKLVQLKQTGK,-0.612 ± 0.17

row,Variant,abundance fitness
1,RFRLSPAARNILEKHSLDASQGTATGPRGIFEKEDALKLVQLKQTGK,-0.447 ± 0.057
2,RFRLSPAARNILEKHSLDASQGTATGPRGIFGKEDALKLVQLKQTGK,-0.482 ± 0.052
3,RFRLSPAARNILEKHSLDASQGTATGPRGIFHKEDALKLVQLKQTGK,-0.389 ± 0.045
4,RFRLSPAARNILEKHSLDASQGTATGPRGIFIKEDALKLVQLKQTGK,-0.965 ± 0.21
5,RFRLSPAARNILEKHSLDASQGTATGPRGIFKKEDALKLVQLKQTGK,-0.517 ± 0.15
6,RFRLSPAARNILEKHSLDASQGTATGPRGIFLKEDALKLVQLKQTGK,-0.553 ± 0.097
7,RFRLSPAARNILEKHSLDASQGTATGPRGIFMKEDALKLVQLKQTGK,-0.947 ± 0.12
8,RFRLSPAARNILEKHSLDASQGTATGPRGIFNKEDALKLVQLKQTGK,-0.733 ± 0.18
9,RFRLSPAARNILEKHSLDASQGTATGPRGIFPKEDALKLVQLKQTGK,-0.492 ± 0.13
10,RFRLSPAARNILEKHSLDASQGTATGPRGIFQKEDALKLVQLKQTGK,-0.376 ± 0.13
11,RFRLSPAARNILEKHSLDASQGTATGPRGIFRKEDALKLVQLKQTGK,-0.698 ± 0.094
12,RFRLSPAARNILEKHSLDASQGTATGPRGIFVKEDALKLVQLKQTGK,-0.637 ± 0.053
13,RFRLSPAARNILEKHSLDASQGTATGPRGIFWKEDALKLVQLKQTGK,-0.716 ± 0.071
14,RFRLSPAARNILEKHSLDASQGTATGPRGIFYKEDALKLVQLKQTGK,-1.12 ± 0.2
15,RFRLSPAARNILEKHSLDASQGTATGPRGIFTAEDALKLVQLKQTGK,-0.113 ± 0.057
16,RFRLSPAARNILEKHSLDASQGTATGPRGIFTCEDALKLVQLKQTGK,-0.417 ± 0.059
17,RFRLSPAARNILEKHSLDASQGTATGPRGIFTDEDALKLVQLKQTGK,-0.279 ± 0.12
18,RFRLSPAARNILEKHSLDASQGTATGPRGIFTEEDALKLVQLKQTGK,0.079 ± 0.044
19,RFRLSPAARNILEKHSLDASQGTATGPRGIFTFEDALKLVQLKQTGK,-0.623 ± 0.073
20,RFRLSPAARNILEKHSLDASQGTATGPRGIFTGEDALKLVQLKQTGK,-0.331 ± 0.05
21,RFRLSPAARNILEKHSLDASQGTATGPRGIFTHEDALKLVQLKQTGK,-0.039 ± 0.15
22,RFRLSPAARNILEKHSLDASQGTATGPRGIFTIEDALKLVQLKQTGK,0.047 ± 0.16
